What follows are sequences tested on Escherichia coli TOP10 (assay: shrunken log2 fold change of peptide-encoding DNA abundance (4.5 h post-induction vs induction); higher = less antimicrobial activity (less host growth inhibition)). Conditions: time post-induction: 4.5 h; library: site-saturation at positions 5, 18, 19, 20.
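Further: peptides expressed intracellularly from a pBAD plasmid library in pooled LB shake-flask culture, induced with 0.3% L-arabinose, DNA abundance read by NGS, three biological replicates, DESeq2 with apeglm shrinkage.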

Row | Sequence | shrunken log2 fold change
1 | RRIRSRPPRLPRPRPRPPRYPRP | -0.0232
2 | RRIRDRPPRLPRPRPRPSTIPRP | -0.295
3 | RRIRVRPPRLPRPRPRPQLSPRP | 0.132
4 | RRIRGRPPRLPRPRPRPWPEPRP | 0.29
5 | RRIRNRPPRLPRPRPRPQQQPRP | 0.103
6 | RRIRARPPRLPRPRPRPIHGPRP | -0.208
7 | RRIRRRPPRLPRPRPRPNQSPRP | -0.13
8 | RRIRKRPPRLPRPRPRPKAGPRP | 0.504
9 | RRIRSRPPRLPRPRPRPDNRPRP | -0.00987
10 | RRIRMRPPRLPRPRPRPDVYPRP | -0.119
11 | RRIRARPPRLPRPRPRPVFGPRP | 0.353
12 | RRIRKRPPRLPRPRPRPYPVPRP | -0.801
13 | RRIRLRPPRLPRPRPRPKFWPRP | 0.0752
14 | RRIRNRPPRLPRPRPRPLDVPRP | -0.251
15 | RRIRTRPPRLPRPRPRPEHNPRP | -0.353
16 | RRIRFRPPRLPRPRPRPIHCPRP | -0.138
17 | RRIRGRPPRLPRPRPRPFKDPRP | -0.681
18 | RRIRERPPRLPRPRPRPRASPRP | -0.0261
19 | RRIRIRPPRLPRPRPRPCDQPRP | -0.021
20 | RRIRDRPPRLPRPRPRPIMYPRP | -0.0948
21 | RRIRPRPPRLPRPRPRPCVEPRP | 0.021
22 | RRIRWRPPRLPRPRPRPSMHPRP | -0.0863
23 | RRIRPRPPRLPRPRPRPLMRPRP | 0.761
24 | RRIRNRPPRLPRPRPRPSPRPRP | 0.0772
25 | RRIRQRPPRLPRPRPRPDWCPRP | -0.229

Row | Sequence | shrunken log2 fold change
26 | RRIRIRPPRLPRPRPRPMPLPRP | 0.124
27 | RRIRARPPRLPRPRPRPYGHPRP | -0.095
28 | RRIRPRPPRLPRPRPRPYFAPRP | -0.0984
29 | RRIRLRPPRLPRPRPRPLKSPRP | -0.146
30 | RRIRVRPPRLPRPRPRPKEYPRP | -0.282
31 | RRIRKRPPRLPRPRPRPFYLPRP | -0.154
32 | RRIRVRPPRLPRPRPRPAEPPRP | 0.218
33 | RRIRNRPPRLPRPRPRPHRFPRP | 0.0175
34 | RRIRWRPPRLPRPRPRPRCNPRP | 0.0644
35 | RRIRMRPPRLPRPRPRPWAVPRP | 0.396
36 | RRIRHRPPRLPRPRPRPILCPRP | -0.182
37 | RRIRLRPPRLPRPRPRPGPVPRP | 0.753
38 | RRIRLRPPRLPRPRPRPTAFPRP | 0.0454
39 | RRIRNRPPRLPRPRPRPGRIPRP | -0.0181
40 | RRIRFRPPRLPRPRPRPCKSPRP | -0.0582
41 | RRIRGRPPRLPRPRPRPEWWPRP | 0.77
42 | RRIRERPPRLPRPRPRPCIEPRP | -0.155
43 | RRIRIRPPRLPRPRPRPARTPRP | 0.0599
44 | RRIRFRPPRLPRPRPRPFHFPRP | -0.532
45 | RRIRHRPPRLPRPRPRPLNKPRP | -0.677
46 | RRIRGRPPRLPRPRPRPFTTPRP | 0.0423
47 | RRIRSRPPRLPRPRPRPHSMPRP | -0.521
48 | RRIRARPPRLPRPRPRPNFKPRP | 0.0298
49 | RRIRPRPPRLPRPRPRPTWQPRP | 0.543
50 | RRIRSRPPRLPRPRPRPVVGPRP | 0.267

Row | Sequence | shrunken log2 fold change
51 | RRIRTRPPRLPRPRPRPSWIPRP | -0.525
52 | RRIRYRPPRLPRPRPRPDQFPRP | -0.435
53 | RRIRFRPPRLPRPRPRPQIAPRP | 0.111
54 | RRIRQRPPRLPRPRPRPVNDPRP | -0.0199
55 | RRIRNRPPRLPRPRPRPKGRPRP | 0.0238
56 | RRIRHRPPRLPRPRPRPLVVPRP | -0.0489
57 | RRIRVRPPRLPRPRPRPVKFPRP | -0.133
58 | RRIRKRPPRLPRPRPRPMNGPRP | -0.0531
59 | RRIRQRPPRLPRPRPRPCYRPRP | -0.00251
60 | RRIRVRPPRLPRPRPRPTPIPRP | 0.186
61 | RRIRDRPPRLPRPRPRPSHYPRP | -1.14
62 | RRIRHRPPRLPRPRPRPHITPRP | -0.857
63 | RRIRNRPPRLPRPRPRPYQQPRP | -0.388
64 | RRIRHRPPRLPRPRPRPVMCPRP | -0.175
65 | RRIRTRPPRLPRPRPRPSFHPRP | -0.772
66 | RRIRRRPPRLPRPRPRPHFYPRP | 0.0714
67 | RRIRERPPRLPRPRPRPTYPPRP | -1.11
68 | RRIRERPPRLPRPRPRPKSHPRP | -0.336
69 | RRIRFRPPRLPRPRPRPNDTPRP | -0.179
70 | RRIRQRPPRLPRPRPRPFQTPRP | -0.01
71 | RRIRMRPPRLPRPRPRPISAPRP | 0.0396
72 | RRIRERPPRLPRPRPRPEPKPRP | 0.0877
73 | RRIRERPPRLPRPRPRPTKVPRP | 0.0356
74 | RRIRPRPPRLPRPRPRPAPFPRP | 0.143
75 | RRIRIRPPRLPRPRPRPAWYPRP | 0.0724

From the supplement of paper PMC9112550, “Optimization of the antimicrobial peptide Bac7 by deep mutational scanning” (BMC Biology, 2022)
